The results in this text go back to US20120178908A1 (Novo Nordisk, published 2012).

Changes are numbered by the printed parent chain.

Assay [1] deals with T1, TLT-1 18-188 relipidated in 20:80 PS:PC vesicles (human, UniProt Q86YW5 18-188).
T1 sequence: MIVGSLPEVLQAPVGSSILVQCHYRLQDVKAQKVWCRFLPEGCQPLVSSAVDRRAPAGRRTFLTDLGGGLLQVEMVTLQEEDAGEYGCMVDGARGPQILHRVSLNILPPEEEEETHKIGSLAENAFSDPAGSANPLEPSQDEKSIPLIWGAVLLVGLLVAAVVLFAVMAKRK
The assay is described as follows: cell-based or functional assay.

Assay [2] deals with T2, TLT-1 receptor on the surface of activated human platelets (human, UniProt Q86YW5 16-311).
T2 sequence: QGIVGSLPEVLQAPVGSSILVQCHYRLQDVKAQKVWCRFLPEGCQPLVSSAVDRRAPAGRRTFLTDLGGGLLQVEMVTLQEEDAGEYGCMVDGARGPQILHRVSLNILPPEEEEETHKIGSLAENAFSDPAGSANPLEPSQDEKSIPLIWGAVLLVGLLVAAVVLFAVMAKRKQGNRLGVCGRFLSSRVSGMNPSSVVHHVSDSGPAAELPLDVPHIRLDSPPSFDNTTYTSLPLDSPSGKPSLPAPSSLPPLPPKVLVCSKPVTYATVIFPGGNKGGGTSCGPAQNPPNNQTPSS
Description: cell-based or functional assay.

B1: Fab 0051-LC-L4a-TF;VH-CH1-HPC4 (other)
light chain-linker-TF: SIVMTQTPKFLLVSAGDRVTITCKASQSVSNDVAWYQQKPGQSPKLLINYASSRYTGIPDRFTGSGYGTDFTFTISTVQAEDLAVYFCQQDYSSPYTFGGGTKLEIERTVAAPSVFIFPPSDEQLKSGTASVVCLLNNFYPREAKVQWKVDNALQSGNSQESVTEQDSKDSTYSLSSTLTLSKADYEKHKVYACEVTHQGLSSPVTKSFNRGECGSGGGGSGGGGSGGGGSSGTTNTVAAYNLTWKSTNFKTILEWEPKPVNQVYTVQISTKSGDWKSKCFYTTDTECDLTDEIVKDVKQTYLARVFSYPAGNVESTGSAGEPLYENSPEFTPYLETNLGQPTIQSFEQVGTKVNVTVEDERTLVRRNNTFLSLRDVFGKDLIYTLYYWKSSSSGKKTAKTNTNEFLIDVDKGENYCFSVQAVIPSRTVNRKSTDSPVECMGQEKGEFRE
VH-CH1-HPC4: QVQLEQSGAELVRPGVSVKISCKGSGYTFTDYSMHWVKQSHAKSLEWIGVISTYYGDVRYNQKFKGKATMTVDKSSSTAYMALARLTSEDSAIYYCARAPMITTGAWFAYWGQGTLVTVSAASTKGPSVFPLAPCSRSTSESTAALGCLVKDYFPEPVTVSWNSGALTSGVHTFPAVLQSSGLYSLSSVVTVPSSSLGTKTYTCNVDHKPSNTKVDKRVESKEDQVDPRLIDGK
For the molecule B1, in assay [1], the “FVII-mediated FXa generation % Activity lipidated TLT-1” value was 22% and the “FVIIa-mediated FXa generation % Activity lipidated TLT-1” value stood at 43%.

B2: Fab 0012-VH-CH1-L4a-hTF.1-219; LC-HPC4 (other)
heavy: EVKLLESGGGLVQPGGSLKLSCAASGFDFSRYWMTWVRQAPGKGLEWIGEINPDSSTINYTPSLKDKFIISRDNAKNTLYLQMSEVRSEDTALYYCASGVFTSWGQGTLVTVSAASTKGPSVFPLAPCSRSTSESTAALGCLVKDYFPEPVTVSWNSGALTSGVHTFPAVLQSSGLYSLSSVVTVPSSSLGTKTYTCNVDHKPSNTKVDKRVESKGSGGGGSGGGGSGGGGSSGTTNTVAAYNLTWKSTNFKTILEWEPKPVNQVYTVQISTKSGDWKSKCFYTTDTECDLTDEIVKDVKQTYLARVFSYPAGNVESTGSAGEPLYENSPEFTPYLETNLGQPTIQSFEQVGTKVNVTVEDERTLVRRNNTFLSLRDVFGKDLIYTLYYWKSSSSGKKTAKTNTNEFLIDVDKGENYCFSVQAVIPSRTVNRKSTDSPVECMGQEKGEFRE
light: DVVMTQTPLSLPVSLGDQASISCRSSQSLVHRNGNTYFHWCLQKPGQSPKLLIYKVSNRFSGVPDRFSGSGSGTDFTLKISRVEAEDLGVYFCSQSTHVPYTFGGGTKLEIKRTVAAPSVFIFPPSDEQLKSGTASVVCLLNNFYPREAKVQWKVDNALQSGNSQESVTEQDSKDSTYSLSSTLTLSKADYEKHKVYACEVTHQGLSSPVTKSFNRGECEDQVDPRLIDGK
As for B2, in assay [1], the “FVII-mediated FXa generation % Activity lipidated TLT-1” value was found to be 60% and the “FVIIa-mediated FXa generation % Activity lipidated TLT-1” value was determined as 72%.

B3: Fab 0061-VH-CH1-L10-TF;LC-HPC4 (other)
VH-CH1-linker-TF: EVKLLESGGGLVQPGGSLKLSCAASGFDFSRYWMTWVRQAPGKGLEWIGEINPDSSTINYNPSLKDKFIISRDNAKNTLYLQMSEVRSEDTALYYCASGVFTSWGQGTLVTVSAASTKGPSVFPLAPCSRSTSESTAALGCLVKDYFPEPVTVSWNSGALTSGVHTFPAVLQSSGLYSLSSVVTVPSSSLGTKTYTCNVDHKPSNTKVDKRVESKYGPPSPSSPAPEFLGGSGTTNTVAAYNLTWKSTNFKTILEWEPKPVNQVYTVQISTKSGDWKSKCFYTTDTECDLTDEIVKDVKQTYLARVFSYPAGNVESTGSAGEPLYENSPEFTPYLETNLGQPTIQSFEQVGTKVNVTVEDERTLVRRNNTFLSLRDVFGKDLIYTLYYWKSSSSGKKTAKTNTNEFLIDVDKGENYCFSVQAVIPSRTVNRKSTDSPVECMGQEKGEFRE
light chain-HPC4: B2 light with C41A
Take B3: in assay [1], the “FVII-mediated FXa generation % Activity lipidated TLT-1” value is 101% and the “FVIIa-mediated FXa generation % Activity lipidated TLT-1” value worked out at 101%. In assay [2], the “FVII-mediated FXa generation % Activity activated plts (n 1)” value was 39% and the “FVIIa-mediated FXa generation % Activity activated plts (n 1)” value was found to be 62%.

B4: Fab 0082-VH-CH1-L10-TF;LC-HPC4 (other)
VH-CH1-linker-TF: B3 VH-CH1-linker-TF with N61A
light chain-HPC4: B2 light with C41A
For B4, in assay [1], the “FVII-mediated FXa generation % Activity lipidated TLT-1” value came to 103% and the “FVIIa-mediated FXa generation % Activity lipidated TLT-1” value worked out at 103%. For the same molecule, in assay [2], the “FVII-mediated FXa generation % Activity activated plts (n 1)” value worked out at 40% and the “FVIIa-mediated FXa generation % Activity activated plts (n 1)” value came out at 57%.

B5: Fab 0023-LC-L3-TF;VH-CH1-HPC4 (other)
light chain-linker-TF: DIVVSQSPSSLAVSAGEKVTMSCKSSQSLLNSRTRKNYLAWYQQKPGQSPKLLIYWASTRESGVPDRFTGSGSGTDFTLTISSVQAEDLAVYYCKQSYNLLTFGAGTKLELKRTVAAPSVFIFPPSDEQLKSGTASVVCLLNNFYPREAKVQWKVDNALQSGNSQESVTEQDSKDSTYSLSSTLTLSKADYEKHKVYACEVTHQGLSSPVTKSFNRGECGSGGGGSGGGGSSGTTNTVAAYNLTWKSTNFKTILEWEPKPVNQVYTVQISTKSGDWKSKCFYTTDTECDLTDEIVKDVKQTYLARVFSYPAGNVESTGSAGEPLYENSPEFTPYLETNLGQPTIQSFEQVGTKVNVTVEDERTLVRRNNTFLSLRDVFGKDLIYTLYYWKSSSSGKKTAKTNTNEFLIDVDKGENYCFSVQAVIPSRTVNRKSTDSPVECMGQEKGEFRE
VH-CH1-HPC4: EVRLVESGGGLVQPGGSLKLSCATSGFTFSDYFMYWIRQTPEKRLEWVAYISNGGDSSSYPDTVKGRFTISRDNAKNTLYLQMSRLKSEDTAMYYCATNKNWDDYYDMDYWGQGTSVTVSSASTKGPSVFPLAPCSRSTSESTAALGCLVKDYFPEPVTVSWNSGALTSGVHTFPAVLQSSGLYSLSSVVTVPSSSLGTKTYTCNVDHKPSNTKVDKRVESKEDQVDPRLIDGK
Consider B5, for which, in assay [1], the “FVII-mediated FXa generation % Activity lipidated TLT-1” value amounted to 26% and the “FVIIa-mediated FXa generation % Activity lipidated TLT-1” value turned out to be 42%. For the same molecule, in assay [2], the “FVII-mediated FXa generation % Activity activated plts (n 1)” value stood at 20% and the “FVIIa-mediated FXa generation % Activity activated plts (n 1)” value stood at 43%.

B6: Fab 0023-LC-L4a-TF;VH-CH1-HPC4 (other)
light chain-linker-TF: DIVVSQSPSSLAVSAGEKVTMSCKSSQSLLNSRTRKNYLAWYQQKPGQSPKLLIYWASTRESGVPDRFTGSGSGTDFTLTISSVQAEDLAVYYCKQSYNLLTFGAGTKLELKRTVAAPSVFIFPPSDEQLKSGTASVVCLLNNFYPREAKVQWKVDNALQSGNSQESVTEQDSKDSTYSLSSTLTLSKADYEKHKVYACEVTHQGLSSPVTKSFNRGECGSGGGGSGGGGSGGGGSSGTTNTVAAYNLTWKSTNFKTILEWEPKPVNQVYTVQISTKSGDWKSKCFYTTDTECDLTDEIVKDVKQTYLARVFSYPAGNVESTGSAGEPLYENSPEFTPYLETNLGQPTIQSFEQVGTKVNVTVEDERTLVRRNNTFLSLRDVFGKDLIYTLYYWKSSSSGKKTAKTNTNEFLIDVDKGENYCFSVQAVIPSRTVNRKSTDSPVECMGQEKGEFRE
VH-CH1-HPC4: B5 VH-CH1-HPC4
As to B6, in assay [1], the “FVII-mediated FXa generation % Activity lipidated TLT-1” value was 24% and the “FVIIa-mediated FXa generation % Activity lipidated TLT-1” value was determined as 40%. Further, in assay [2], the “FVII-mediated FXa generation % Activity activated plts (n 1)” value was found to be 21% and the “FVIIa-mediated FXa generation % Activity activated plts (n 1)” value stood at 21%.

B7: Fab 0023-LC-L6-TF;VH-CH1-HPC4 (other)
light chain-linker-TF: DIVVSQSPSSLAVSAGEKVTMSCKSSQSLLNSRTRKNYLAWYQQKPGQSPKLLIYWASTRESGVPDRFTGSGSGTDFTLTISSVQAEDLAVYYCKQSYNLLTFGAGTKLELKRTVAAPSVFIFPPSDEQLKSGTASVVCLLNNFYPREAKVQWKVDNALQSGNSQESVTEQDSKDSTYSLSSTLTLSKADYEKHKVYACEVTHQGLSSPVTKSFNRGECGGGGSGGGGSGSGGGGSGGGGSGGGGSSGTTNTVAAYNLTWKSTNFKTILEWEPKPVNQVYTVQISTKSGDWKSKCFYTTDTECDLTDEIVKDVKQTYLARVFSYPAGNVESTGSAGEPLYENSPEFTPYLETNLGQPTIQSFEQVGTKVNVTVEDERTLVRRNNTFLSLRDVFGKDLIYTLYYWKSSSSGKKTAKTNTNEFLIDVDKGENYCFSVQAVIPSRTVNRKSTDSPVECMGQEKGEFRE
VH-CH1-HPC4: B5 VH-CH1-HPC4
Consider B7, for which, in assay [1], the “FVII-mediated FXa generation % Activity lipidated TLT-1” value is 27% and the “FVIIa-mediated FXa generation % Activity lipidated TLT-1” value is 44%. Also, in assay [2], the “FVII-mediated FXa generation % Activity activated plts (n 1)” value is 20% and the “FVIIa-mediated FXa generation % Activity activated plts (n 1)” value stood at 45%.

B8: Fab 0012-LC-L0-hTF.1-219; VH-CH1-HPC4 (other)
light: DVVMTQTPLSLPVSLGDQASISCRSSQSLVHRNGNTYFHWCLQKPGQSPKLLIYKVSNRFSGVPDRFSGSGSGTDFTLKISRVEAEDLGVYFCSQSTHVPYTFGGGTKLEIKRTVAAPSVFIFPPSDEQLKSGTASVVCLLNNFYPREAKVQWKVDNALQSGNSQESVTEQDSKDSTYSLSSTLTLSKADYEKHKVYACEVTHQGLSSPVTKSFNRGECSGTTNTVAAYNLTWKSTNFKTILEWEPKPVNQVYTVQISTKSGDWKSKCFYTTDTECDLTDEIVKDVKQTYLARVFSYPAGNVESTGSAGEPLYENSPEFTPYLETNLGQPTIQSFEQVGTKVNVTVEDERTLVRRNNTFLSLRDVFGKDLIYTLYYWKSSSSGKKTAKTNTNEFLIDVDKGENYCFSVQAVIPSRTVNRKSTDSPVECMGQEKGEFRE
heavy: EVKLLESGGGLVQPGGSLKLSCAASGFDFSRYWMTWVRQAPGKGLEWIGEINPDSSTINYTPSLKDKFIISRDNAKNTLYLQMSEVRSEDTALYYCASGVFTSWGQGTLVTVSAASTKGPSVFPLAPCSRSTSESTAALGCLVKDYFPEPVTVSWNSGALTSGVHTFPAVLQSSGLYSLSSVVTVPSSSLGTKTYTCNVDHKPSNTKVDKRVESKEDQVDPRLIDGK
As for B8, in assay [1], the “FVII-mediated FXa generation % Activity lipidated TLT-1” value came to 90% and the “FVIIa-mediated FXa generation % Activity lipidated TLT-1” value turned out to be 98%. Also, the “FVIIa-mediated FXa generation % Activity activated plts (n 1)” value in assay [2] came out at 132%.
